# Assay results taken from paper PMC12102759 (2025).
# B1: SH3BP2 peptide 410-425 (SH3 domain-binding protein 2), 16-mer library wild type / TNKS ANK (TNKS 12 ANK repeats, residues 174-649) (parent complex)
# chain 1: LPHLQRSPPDGQSFRS
# chain 2: TGVPAVSGALRELLEACRNGDVSRVKRLVDAANVNAKDMAGRKSSPLHFAAGFGRKDVVEHLLQMGANVHARDDGGLIPLHNACSFGHAEVVSLLLCQGADPNARDNWNYTPLHEAAIKGKIDVCIVLLQHGADPNIRNTDGKSALDLADPSAKAVLTGEYKKDELLEAARSGNEEKLMALLTPLNVNCHASDGRKSTPLHLAAGYNRVRIVQLLLQHGADVHAKDKGGLVPLHNACSYGHYEVTELLLKHGACVNAMDLWQFTPLHEAASKNRVEVCSLLLSHGADPTLVNCHGKSAVDMAPTPELRERLTYEFKGHSLLQAAREADLAKVKKTLALEIINFKQPQSHETALHCAVASLHPKRKQVTELLLRKGANVNEKNKDFMTPLHVAAERAHNDVMEVLHKHGAKMNALDTLGQTALHRAALAGHLQTCRLLLSYGSDPSIISLQGFTAAQMGNEAVQQILSESTPIRTSD
# Variants of: B1
# Experiment: proteomic peptide phage display deep mutational scan (ProP-PD DMS): M13 P8 16-mer library selected against immobilised GST-tagged bait for four days (rounds), NGS of the eluted pools per day and pseudo-replica; bait immobilised on MaxiSorp plates (10 µg), library pre-cleared on GST, 2 h binding at 4 °C, five washes; one round per day, days 1-4; value from days 2 and 3
row,Variant,screen value
1,chain 1 H3N,"0.000146 average fractional NGS count over selection days 2 and 3 (reads of this peptide / all reads for the bait, averaged over …"
2,chain 1 H3Q,"0.000537 average fractional NGS count over selection days 2 and 3 (reads of this peptide / all reads for the bait, averaged over …"
3,chain 1 H3M,"0.0014 average fractional NGS count over selection days 2 and 3 (reads of this peptide / all reads for the bait, averaged over …"
4,chain 1 H3V,"0.00187 average fractional NGS count over selection days 2 and 3 (reads of this peptide / all reads for the bait, averaged over …"
5,chain 1 P8N,"0.0021 average fractional NGS count over selection days 2 and 3 (reads of this peptide / all reads for the bait, averaged over …"
6,chain 1 P8V,"0.00324 average fractional NGS count over selection days 2 and 3 (reads of this peptide / all reads for the bait, averaged over …"
7,chain 1 P8T,"0.00538 average fractional NGS count over selection days 2 and 3 (reads of this peptide / all reads for the bait, averaged over …"
8,chain 1 P8D,"0.00888 average fractional NGS count over selection days 2 and 3 (reads of this peptide / all reads for the bait, averaged over …"
9,chain 1 P8S,"0.000677 average fractional NGS count over selection days 2 and 3 (reads of this peptide / all reads for the bait, averaged over …"
10,chain 1 P8H,"0.000697 average fractional NGS count over selection days 2 and 3 (reads of this peptide / all reads for the bait, averaged over …"
11,chain 1 S7H,"0.000827 average fractional NGS count over selection days 2 and 3 (reads of this peptide / all reads for the bait, averaged over …"
12,chain 1 S7M,"0.00193 average fractional NGS count over selection days 2 and 3 (reads of this peptide / all reads for the bait, averaged over …"
13,chain 1 S7N,"0.00621 average fractional NGS count over selection days 2 and 3 (reads of this peptide / all reads for the bait, averaged over …"
14,chain 1 S7F,"0.00476 average fractional NGS count over selection days 2 and 3 (reads of this peptide / all reads for the bait, averaged over …"
15,chain 1 S7V,"0.00627 average fractional NGS count over selection days 2 and 3 (reads of this peptide / all reads for the bait, averaged over …"
16,chain 1 P9S,"0.000178 average fractional NGS count over selection days 2 and 3 (reads of this peptide / all reads for the bait, averaged over …"
17,chain 1 P9A,"0.00156 average fractional NGS count over selection days 2 and 3 (reads of this peptide / all reads for the bait, averaged over …"
18,chain 1 D10P,"0.00059 average fractional NGS count over selection days 2 and 3 (reads of this peptide / all reads for the bait, averaged over …"
19,chain 1 D10V,"0.00049 average fractional NGS count over selection days 2 and 3 (reads of this peptide / all reads for the bait, averaged over …"
20,chain 1 D10Q,"0.00104 average fractional NGS count over selection days 2 and 3 (reads of this peptide / all reads for the bait, averaged over …"
21,chain 1 F14H,"0.000634 average fractional NGS count over selection days 2 and 3 (reads of this peptide / all reads for the bait, averaged over …"
22,chain 1 F14S,"0.00286 average fractional NGS count over selection days 2 and 3 (reads of this peptide / all reads for the bait, averaged over …"
23,chain 1 F14A,"0.0212 average fractional NGS count over selection days 2 and 3 (reads of this peptide / all reads for the bait, averaged over …"
24,chain 1 F14L,"0.000394 average fractional NGS count over selection days 2 and 3 (reads of this peptide / all reads for the bait, averaged over …"
25,chain 1 F14M,"0.0018 average fractional NGS count over selection days 2 and 3 (reads of this peptide / all reads for the bait, averaged over …"

row,Variant,screen value
1,chain 1 F14Q,"0.000155 average fractional NGS count over selection days 2 and 3 (reads of this peptide / all reads for the bait, averaged over …"
2,chain 1 F14D,"0.000786 average fractional NGS count over selection days 2 and 3 (reads of this peptide / all reads for the bait, averaged over …"
3,chain 1 Q12V,"0.000654 average fractional NGS count over selection days 2 and 3 (reads of this peptide / all reads for the bait, averaged over …"
4,chain 1 Q12E,"0.000127 average fractional NGS count over selection days 2 and 3 (reads of this peptide / all reads for the bait, averaged over …"
5,chain 1 Q12T,"0.00582 average fractional NGS count over selection days 2 and 3 (reads of this peptide / all reads for the bait, averaged over …"
6,chain 1 P2D,"0.00379 average fractional NGS count over selection days 2 and 3 (reads of this peptide / all reads for the bait, averaged over …"
7,chain 1 P2E,"0.000462 average fractional NGS count over selection days 2 and 3 (reads of this peptide / all reads for the bait, averaged over …"
8,chain 1 P2L,"0.000238 average fractional NGS count over selection days 2 and 3 (reads of this peptide / all reads for the bait, averaged over …"
9,chain 1 P2H,"0.000416 average fractional NGS count over selection days 2 and 3 (reads of this peptide / all reads for the bait, averaged over …"
10,chain 1 P2A,"0.00048 average fractional NGS count over selection days 2 and 3 (reads of this peptide / all reads for the bait, averaged over …"
11,chain 1 P2M,"0.000224 average fractional NGS count over selection days 2 and 3 (reads of this peptide / all reads for the bait, averaged over …"
12,chain 1 L4S,"0.000672 average fractional NGS count over selection days 2 and 3 (reads of this peptide / all reads for the bait, averaged over …"
13,chain 1 L4G,"0.000123 average fractional NGS count over selection days 2 and 3 (reads of this peptide / all reads for the bait, averaged over …"
14,chain 1 L4N,"0.000501 average fractional NGS count over selection days 2 and 3 (reads of this peptide / all reads for the bait, averaged over …"
15,chain 1 L4M,"0.0015 average fractional NGS count over selection days 2 and 3 (reads of this peptide / all reads for the bait, averaged over …"
16,chain 1 L4F,"0.00253 average fractional NGS count over selection days 2 and 3 (reads of this peptide / all reads for the bait, averaged over …"
17,chain 1 L4T,"0.000821 average fractional NGS count over selection days 2 and 3 (reads of this peptide / all reads for the bait, averaged over …"
18,chain 1 L4Q,"0.000264 average fractional NGS count over selection days 2 and 3 (reads of this peptide / all reads for the bait, averaged over …"
19,chain 1 L4Y,"0.000355 average fractional NGS count over selection days 2 and 3 (reads of this peptide / all reads for the bait, averaged over …"
20,chain 1 L4W,"0.00434 average fractional NGS count over selection days 2 and 3 (reads of this peptide / all reads for the bait, averaged over …"
21,chain 1 L4P,"0.00111 average fractional NGS count over selection days 2 and 3 (reads of this peptide / all reads for the bait, averaged over …"
22,chain 1 Q5G,"0.00123 average fractional NGS count over selection days 2 and 3 (reads of this peptide / all reads for the bait, averaged over …"
23,chain 1 Q5A,"0.000231 average fractional NGS count over selection days 2 and 3 (reads of this peptide / all reads for the bait, averaged over …"
24,chain 1 Q5F,"0.00256 average fractional NGS count over selection days 2 and 3 (reads of this peptide / all reads for the bait, averaged over …"
25,chain 1 Q5H,"0.0031 average fractional NGS count over selection days 2 and 3 (reads of this peptide / all reads for the bait, averaged over …"

row,Variant,screen value
1,chain 1 Q5N,"0.000679 average fractional NGS count over selection days 2 and 3 (reads of this peptide / all reads for the bait, averaged over …"
2,chain 1 Q5L,"0.000257 average fractional NGS count over selection days 2 and 3 (reads of this peptide / all reads for the bait, averaged over …"
3,chain 1 Q5T,"0.00193 average fractional NGS count over selection days 2 and 3 (reads of this peptide / all reads for the bait, averaged over …"
4,chain 1 Q5M,"0.00158 average fractional NGS count over selection days 2 and 3 (reads of this peptide / all reads for the bait, averaged over …"
5,chain 1 S13F,"0.000366 average fractional NGS count over selection days 2 and 3 (reads of this peptide / all reads for the bait, averaged over …"
6,chain 1 S13H,"0.00169 average fractional NGS count over selection days 2 and 3 (reads of this peptide / all reads for the bait, averaged over …"
7,chain 1 S13P,"0.00144 average fractional NGS count over selection days 2 and 3 (reads of this peptide / all reads for the bait, averaged over …"
8,chain 1 S13V,"0.00486 average fractional NGS count over selection days 2 and 3 (reads of this peptide / all reads for the bait, averaged over …"
9,chain 1 S13N,"0.000503 average fractional NGS count over selection days 2 and 3 (reads of this peptide / all reads for the bait, averaged over …"
10,chain 1 R15L,"0.000467 average fractional NGS count over selection days 2 and 3 (reads of this peptide / all reads for the bait, averaged over …"
11,chain 1 R15E,"0.0203 average fractional NGS count over selection days 2 and 3 (reads of this peptide / all reads for the bait, averaged over …"
12,chain 1 R15D,"0.000883 average fractional NGS count over selection days 2 and 3 (reads of this peptide / all reads for the bait, averaged over …"
13,chain 1 R15P,"0.00212 average fractional NGS count over selection days 2 and 3 (reads of this peptide / all reads for the bait, averaged over …"
14,chain 1 R15K,"0.00112 average fractional NGS count over selection days 2 and 3 (reads of this peptide / all reads for the bait, averaged over …"
15,chain 1 R15T,"0.00759 average fractional NGS count over selection days 2 and 3 (reads of this peptide / all reads for the bait, averaged over …"
16,chain 1 R15A,"0.000604 average fractional NGS count over selection days 2 and 3 (reads of this peptide / all reads for the bait, averaged over …"
17,chain 1 R15I,"0.00013 average fractional NGS count over selection days 2 and 3 (reads of this peptide / all reads for the bait, averaged over …"
18,chain 1 R15Q,"0.000422 average fractional NGS count over selection days 2 and 3 (reads of this peptide / all reads for the bait, averaged over …"
19,chain 1 L1K,"0.000567 average fractional NGS count over selection days 2 and 3 (reads of this peptide / all reads for the bait, averaged over …"
20,chain 1 L1F,"0.000588 average fractional NGS count over selection days 2 and 3 (reads of this peptide / all reads for the bait, averaged over …"
21,chain 1 L1E,"0.00294 average fractional NGS count over selection days 2 and 3 (reads of this peptide / all reads for the bait, averaged over …"
22,chain 1 L1I,"0.00049 average fractional NGS count over selection days 2 and 3 (reads of this peptide / all reads for the bait, averaged over …"
23,chain 1 L1A,"0.00143 average fractional NGS count over selection days 2 and 3 (reads of this peptide / all reads for the bait, averaged over …"
24,chain 1 L1S,"0.00146 average fractional NGS count over selection days 2 and 3 (reads of this peptide / all reads for the bait, averaged over …"
25,chain 1 L1D,"0.00232 average fractional NGS count over selection days 2 and 3 (reads of this peptide / all reads for the bait, averaged over …"
